Laboratory results reported in the DeepSol protein solubility set.

Assay: soluble on expression in E. coli; label from the status in PepcDB or PDB records

Sequence | soluble on expression in E. coli
EAGMAAITAATAGNMQSQINYTRSNEKEADRFGIATLAKAGFDVQAMPRFFGRLADEYRYASKPPPMLLTHPLPEDRVADSRQRAQAYPPMRIAPSIDYHLARARIVARYAGIDGQAALGWFERTQKKASADIMPSFDYGRALVHLDNKRLSQAEPILKKLLAQDPGNPFYLDAMTDLYIEKKQPQKAVELLNSALKRNPQNKVLTINYANALLEANQNDQAVRTLQRYTHDNPEDSNGWQLLSKGYHALGRSDEELAARAEILALRANWNKAIQYYSEASKMAELGSLEQARYDARIDQLMIQRDRFMALQ | not soluble
EAVREMVCEDDLSQTFITDGSLPACDITLEQAQNLARHVWGQGFAPPSFTDEFHVVRQQPLGAEGKHKKVWLQKDGCEFEAMFWRCSEDIPEYIRTVYRPVANEWRNNLELQLYIDYWEAA | not soluble
EDSKALDEVVVVAFGTQKKESMISSIETIKPAELKVPSSNLTTALAGRMSGVIAYQRSGEPGKDNADFFIRGVTTFGYKKDPLILIDGIETTTTELARLQPDDIAAFSILKDATATALYGARGANGVIQVATKEGKEGA | not soluble
EERNDWHFNIGAMYEIENVEGYGEDMDGLAEPSVYFNAANGPWRIALAYYQEGPVDYSAGKRGTWFDRPELEVHYQFLENDDFSFGLTGGFRNYGYHYVDEPGKDTANMQRWKIAPDWDVKLTDDLRFNGWLSMYKFANDLNTTGYADTRVETETGLQYTFNETVALRVNYYLERGFNMDDSRNNGEFSTQEIRAYLPLTLGNHSVTPYTRIGLDRWSNWDWQDDIEREGHDFNRVGLFYGYDFQNGLSVSLEYAFEWQDHDEGDSDKFHYAGVGVNYSFHHHHHH | soluble
EFVDPSWNYFDNRVHDIAIMEGQSQTKKWQKWLSQIEKRFGVDRNILLAIWSMESNYGKVLANKDVMRDTIRSLATLAYADQKRAKYAQAQLIAAMTILQNGEITRAQLTGSWAGAMGHTQFIPSSYLAYAIDMDGDGRRDIWTSVPDALATAANLLYMNGWQSKLPWGVEVKLPQGKNLPEDWHSFEQWAKLGVKQANGKHLPSLSERAILKYPDGPEGPIFLVTKNFFVLKRYNNADRYAFAVALLANRIAGHSGL | not soluble
EGPIDKLKTPEDVPNDPLPLISDFEWSTLDIDDNLQLDELYKLLYDNYVEDIDATFRFKYSHEFFQWALKPPGWRKDWHVGVRVKSTGKLVAFIAATPVTFKLNKSNKVIDSVEINFLCIHKKLRNKRLAPVLIKEITRRVNKQNIWQALYTGGSILPTPLTTCRYQHRPINWSKLHDVGFSHLPPNQTKSSMVASYTLPNNPKLKGLRPMTGKDVSTVLSLLYKYQERFDIVQLFTEEEFKHWMLGHDENSDSNVVKSYVVEDENGIITDYFSYYLLPFTVLDNAQHDELGIAYLFYYASDSFEKPNYKKRLNELITDALITSKKFGVDVFNCLTCQDNTYFLKDCKFGSGDGFLNYYLFNYRTFPMDGGIDKKTKEVVEDQTSGIGVVLL | soluble
EHLPKLQPRPYSCASSSLFHPGKLHFVFNIVEFLSTATTEVLRKGVCTGWLALLVASVLQPNIHASHEDSGKALAPKISISPRTTNSFHLPDDPSIPIIMVGPGTGIAPFIGFLQHREKLQEQHPDGNFGAMWLFFGCRHKDRDYLFRKELRHFLKHGILTHLKVSFSRDAPVGEEEAPAKYVQDNIQLHGQQVARILLQENGHIYVCGDAKNMAKDVHDALVQIISKEVGVEKLEAMKTLATLKEEKRYLQDIWS | soluble
EHRKVERGILAYQPGKLLVRGDTPLFKIERLLGIDLDHIEAETLAGLIYETLKRVPEEEEQMEVEGLRIIIKKMKGPKIVLAKVLKLD | not soluble
EIKQNEQRLNAIVQNLVSGVMLINVDKQVIMTNRTMYQILGETEITGKPFYEVIKSFALSQLIDATFETKTMQQKEIILYFPREMILDASVSPILAENGEITGIILLLHDIT | not soluble
EKAEDCWELQISPELLAHGRQKILDLLNEGSARDLRSLQRIGPKKAQLIVGWRELHGPFSQVEDLERVEGITGKQMESFLKANILGLAAGQ | soluble
EKKPYIISNVGMTLDGKLATINNDSRISCEEDLIRVHKIRANVDGIMVGIGTVLKDDPRLTVHKIKSDRNPVRIVVDSKLRVPLNARVLNKDAKTIIATTEDTNEEKEKKIKILEDMGVEVVKCGRGKVDLKKLMDILYDKGIKSILLEGGGTLNWGMFKEGLVDEVSVYIAPKIFGGKEAPTYVDGEGFKTVDECVKLELKNFYRLGEGIVLEFKVKK | soluble
ENKTLDEVTSDLVSRGAKFVGEELQLDVGGLLLHFFNYNGKIVVSSMKKVGFLQTLNRKRLENHPSFVFLEKEVPKSVFLEVFVDLYTLFDKLLGFSPRSSLLLIGYEEDGLIKYRLEVM | not soluble
EPDSVSIPITCCFNVINRKIPIQRLESYTRITNIQCPKEAVIFKTQRGKEVCADPKERWVRDSMKHLDQIFQNLKP | soluble
EPFWADLQPRVAFVERGGSLWLNCSTNCPRPERGGLETSLRRNGTQRGLRWLARQLVDIREPETQPVCFFRCARRTLQARGLIRTFQRPDRVELMPLPPWQPVGENFTLSCRVPGAGPRASLTLTLLRGAQELIRRSFAGEPPRARGAVLTATVLARREDHGANFSCRAELDLRPHGLGLFENSSAPRELRTFSLS | soluble
EPKLDMNKQKISPAEVAKHNKPDDCWVVINGYVYDLTRFLPNHPGGQDVIKFNAGKDVTAIFEPLHAPNVIDKYIAPEKKLGPLQGSMPPELVCPPYAPGETKEDIARKEQLKSLLPPLDNIINLYDFEYLASQTLTKQAWAYYSSGANDEVTHRENHNAYHRIFFKPKILVDVRKVDISTDMLGSHVDVPFYVSATALCKLGNPLEGEKDVARGCGQGVTKVPQMISTLASCSPEEIIEAAPSDKQIQWYQLYVNSDRKITDDLVKNVEKLGVKALFVTVDAPSLGQREKDMKLKFSNTKAGPKAMKKTNVEESQGASRALSKFIDPSLTWKDIEELKKKTKLPIVIKGVQRTEDVIKAAEIGVSGVVLSNHGGRQLDFSRAPIEVLAETMPILEQRNLKDKLEVFVDGGVRRGTDVLKALCLGAKGVGLGRPFLYANSCYGRNGVEKAIEILRDEIEMSMRLLGVTSIAELKPDLLDLSTLKARTVGVPNDVLYNEVYEGPTLTEFEDA | soluble
EPNRLIKEKSPYLLQHAYNPVDWYPWGEEAFEKARKENKPVFLSIGYSTCHWCHMMAHESFEDEEVAGLMNEAFVSIKVDREERPDIDNIYMTVCQIILGRGGWPLNIIMTPGKKPFFAGTYIPKNTRFNQIGMLELVPRIKEIWEQQHEEVLDSAEKITSTIQEMIKESSG | soluble
EQKVEAFNIQYKSRTSFKVQVKLNAQGKYQKSQVQSYLQQIGLNDGDLKQESGTLSADLIFTYTVPESNLFSRKNFDTLMKKINFNTTLKIDMVGKDEIMKKILQSTTFTNNLSSQTFQDQSIDLLPYLLYS | not soluble
ERLFQVFISLGVGKSAIRQHLASLDPTNSRDIEALADELSGKRPLLYRGVAMLLAHHSFAKSLREDAAGMWLQEKRHQLHSGLR | not soluble
ETLPLMMFTANGGGYLTYANKWLKDYFGMLEIQSGKTEWTSLVNSSDTKQVRDEWEKAQTNQTHFRAQAKLKSKTAESALWHLISLVPVKNDLNQITSWTGFFVDI | not soluble
EVQLLESGGGLVQPGGSLRLSAAASGFTFSTFSMNWVRQAPGKGLEWVSYISRTSKTIYYADSVKGRFTISRDNSKNTLYLQMNSLRAEDTAVYYVARGRFFDYWGQGTLVTVS | soluble
EVQLVESGGGLVQPGRSLRLSCAASGFTFDDYAMHWVRQAPGKGLEWVSGISWNSGSIGYADSVKGRFTISRDNAKNSLYLQMNSLRAEDTAVYYCARGRGFHYYYYGMDIWGQGTTVTVSSASTKGPSVFPLAPSSKSTSGGTAALGCLVKDYFPEPVTVSWNSGALTSGVHTFPAVLQSSGLYSLSSVVTVPSSSLGTQTYICNVNHKPSNTKVDKKVEPK | soluble
EVVVRRLSDPVELEEAVEVHARAWGSRDYREVVAPHILRALVDNGGLVLGAFVGGRMVGASYGWFVGCGEGRYFYSHATGVEEGYKYRGVGFALKARQREEVLREGVSLAKWTFDPLQSLNTRFNLAKLGAVYRVYKVNYYGEMTDEINRGLGSDRVVAEWWL | not soluble
FDASNFKDFSSIASASSSWQNQSGSTMIIQVDSFGNVSGQYVNRAQGTGCQNSPYPLTGRVNGTFIAFSVGWNNSTENCNSATGWTGYAQVNGNNTEIVTSWNLAYEGGSGPAIEQGQDTFQYVPTTENKSLLKD | soluble
FEQEGRDVALDYRWMPYKRISTNLKKALIASEDARFAGHGGFDWGGIQNAIRRNRNSGKVKAGGSTISQQLAKNLFLNESRSYIRKGEEAAITAMMEAVTDKDRIFELYLNSIEWHYGVFGAEAASRYFYQIPAAKLTKQQAAKLTARVPAPLYYADHPKSKRLRNKTNIVLKRMGSAELPESDTD | not soluble
FGVWVLVPRSFPRCVWFQRSMAVVIRLQGLPIVAGTMDIRHFFSGLTIPDGGVHIVGGELGEAFIVFATDEDARLGMMRTGGTIKGSKVTLLLSSKTEMQNMIELSRRRFETANLDIPPANASRSGPPPSSGMSSRVNLPTTVSNFNNPSPSVVTATTSVHESNKNIQTFSTASVGTAPPNMGASFGSPTFSSTVPSTASPMNTVPPPPIPPIPAMPSLPPMPSIPPIPVPPPVPTLPPVPPVPPIPPVPSVPPMTPLPPMSGMPPLNPPPVAPLPAGMNGSGAPMNLNNNLNPMFLGPLNPVNPIQMNSQSSVKPLPINPDDLYVSVHGMPFSAMENDVRDFFHGLRVDAVHLLKDHVGRNNGNGLVKFLSPQDTFEALKRNRMLMIQRYVEVSPATERQWVAAGGHITFKQNMGPSGQTHPPPQTLPRSKSPSGQKRSRSRSPHEAGFCVYLKGLPFEAENKHVIDFFKKLDIVEDSIYIAYGPNGKATGEGFVEFRNEADYKAALCRHKQYMGNRFIQVHPITKKGMLEKIDMIRKRLQNFSYDQREMILNPEGDVNSAKVCAHITNIPFSITKMDVLQFLEGIPVDENAVHVLVDNNGQGLGQALVQFKNEDDARKSERLHRKKLNGREAFVHVVTLEDMREIEKNPPAQGKKGLKMPVPGNPAVPGMPNAGLPGVGLPSAGLPGAGLPSTGLPGSAITSAGLPGAGMPSAGIPSAGGEEHAFLTVGSKEANNGPPFNFPGNFGGSNAFGPPIPPPGLGGGAFGDARPGMPSVGNSGLPGLGLDVPGFGGGPNNLSGPSGFGGGPQNFGNGPGSLGGPPGFGSGPPGLGSAPGHLGGPPAFGPGPGPGPGPGPIHIGGPPGFASSSGKPGPTVIKVQNMPFTVSIDEILDFFYGYQVIPGSVCLKYNEKGMPTGEAMVAFESRDEATAAVIDLNDRPIGSRKVKLVLG | soluble
FHLTTRNGEPHMIVSRQEKGKSLLFKTEDGVNMCTLMAMDLGELCEDTITYKCPLLRQNEPEDIDCWCNSTSTWVTYGTCT | soluble
FHQISSRIQKSIDVDEVLRLCAEGLHDVLGYERVNILMADTARTSLSFVAAVGTADFNPAGVVLPLDQRGGVITKCFTDRQVYMIDDVSAYPTDFRLQSPYDAIRALRSKSFVICPIVVKGEAIGVFAVDNRSSRRSLNDTDVDTIKLFADQASSAIVRINLLKAI | soluble
FLGELLIDLPLPVDTPSVDQCEKCRACITSCPTQAIVEDKVVDARRCISYLTIEFDGVIPEEFRKPMGNRIYGCDDCQLVCPWNRYADVTEQEDFHRRESFHNPDLVE | not soluble
FLRDAPKHLNPDGEIRLIISDLAEHLHLRPSDFLDKAFAQAGLRVADMMKTKPKHKKAANPSDPLAFARTRETTFLYRLKKA | not soluble
